Values quoted from earlier work in US20230398266A1, “THERAPEUTIC AGENT FOR USE IN LOCAL TREATMENT OF INFLAMMATION ASSOCIATED WITH ATHEROSCLEROSIS AND/OR A THROMBOTIC STATE” (priority 2020, published 2023).

Legend:
[1] = system: patients with COVID-19; conditions: for side effects related to systemic administration: patients with COVID-19; for results in patients with COVID-19: systemic administration, preliminary studies
[2] = system: patients with previous myocardial infarction and elevated inflammatory indices; conditions: systemic administration; compared to placebo

Substance | side effects related to systemic administration [1] | results in patients with COVID-19 [1] | incidence of cardiovascular events (death from heart disease, myocardial infarction, cerebral stroke) [2] | incidence of serious side effects such as fatal sepsis and thrombocythemia [2]
tocilizumab | severe side effects | encouraging results | – | –
anakinra | severe side effects | encouraging results | – | –
canakinumab | – | – | lower incidence of cardiovascular events compared to placebo | higher incidence of serious side effects
